Assay results from US7011951.

Assays:
human AcinusS = target: T1, human AcinusS
T1 chain: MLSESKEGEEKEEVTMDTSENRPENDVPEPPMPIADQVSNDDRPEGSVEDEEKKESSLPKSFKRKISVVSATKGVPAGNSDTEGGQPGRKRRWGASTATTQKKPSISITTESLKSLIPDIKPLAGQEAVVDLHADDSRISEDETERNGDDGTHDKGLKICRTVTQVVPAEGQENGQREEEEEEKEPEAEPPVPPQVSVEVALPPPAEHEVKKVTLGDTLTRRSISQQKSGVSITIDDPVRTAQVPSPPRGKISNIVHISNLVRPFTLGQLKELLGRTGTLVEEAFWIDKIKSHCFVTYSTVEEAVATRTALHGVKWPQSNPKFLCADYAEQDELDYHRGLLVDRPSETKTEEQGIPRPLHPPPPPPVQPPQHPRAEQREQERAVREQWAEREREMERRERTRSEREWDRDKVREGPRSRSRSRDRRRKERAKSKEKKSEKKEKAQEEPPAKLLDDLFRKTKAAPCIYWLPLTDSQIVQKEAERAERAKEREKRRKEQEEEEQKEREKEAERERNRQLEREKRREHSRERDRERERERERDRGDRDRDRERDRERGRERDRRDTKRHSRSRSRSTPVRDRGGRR

[1] = target: T2, AcinusS (D/A) resulting from substitution of Asp^1093 with Ala
T2 chain: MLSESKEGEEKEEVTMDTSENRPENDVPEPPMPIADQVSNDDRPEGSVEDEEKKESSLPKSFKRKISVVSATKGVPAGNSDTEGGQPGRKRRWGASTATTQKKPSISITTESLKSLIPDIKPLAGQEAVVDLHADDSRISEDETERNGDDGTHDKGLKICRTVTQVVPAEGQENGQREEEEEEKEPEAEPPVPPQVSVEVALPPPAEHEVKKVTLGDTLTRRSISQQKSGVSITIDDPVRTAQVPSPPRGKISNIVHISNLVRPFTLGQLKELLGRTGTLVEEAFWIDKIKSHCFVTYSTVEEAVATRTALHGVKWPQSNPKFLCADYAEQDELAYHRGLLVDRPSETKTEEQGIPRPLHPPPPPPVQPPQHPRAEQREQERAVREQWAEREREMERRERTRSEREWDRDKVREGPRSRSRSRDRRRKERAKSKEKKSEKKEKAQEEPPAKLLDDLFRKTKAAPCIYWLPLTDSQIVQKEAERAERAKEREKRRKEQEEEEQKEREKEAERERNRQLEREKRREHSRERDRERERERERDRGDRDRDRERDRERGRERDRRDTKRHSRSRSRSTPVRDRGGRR

B1: recombinant active human caspase-3 (protein)
chain: SGISLDNSYKMDYPEMGLCIIINNKNFHKSTGMTSRSGTDVDAANLRETFRNLKYEVRNKNDLTREEIVELMRDVSKEDHSKRSSFVCVLLSHGEEGIIFGTNGPVDLKKITNFFRGDRCRSLTGKPKLFIIQACRGTELDCGIETDSGVDDDMACHKIPVEADFLYAYSTAPGYYSWRNSKDGSWFIQSLCAMLKQYADKLEFMHILTRVNRKVATEFESFSFDATFHAKKQIPCIVSMLTKELYFYH
B1 was tested, and the “cleavage of AcinusS by caspase-3 (SDS-PAGE, immunoblot; microsequencing of the cleavage product)” value (human AcinusS) was “human AcinusS was actually cleaved with caspase-3 in vivo, and the cleavage site was determined to be the Asp^1093 of DELD^1093” and the “in vitro cleavage by caspase-3 (SDS-PAGE, immunoblot)” value [1] was “a mutation of substituting Asp^1093 with Ala (D/A) abolished the in vitro cleavage of Acinus by caspase-3”.
